Measured values published in the Immune Epitope Database (IEDB).

Legend:
HLA-B*18:01 [1] = assay: IEDB peptide-MHC binding, purified MHC/competitive/fluorescence; filed as Kd, often an IC50 or EC50 that approximates it; ≥ and ≤ were set here for values at or beyond the usual limits of such assays; conditions: source organism: Vaccinia virus WR
HLA-A*02:01 [2] = assay: as above; conditions: source organism: Vaccinia virus WR
HLA-B*15:17 [3] = assay: as above; conditions: source organism: Vaccinia virus WR
HLA-A*11:01 = assay: IEDB peptide-MHC binding, purified MHC/direct/fluorescence; filed as Kd, often an IC50 or EC50 that approximates it; ≥ and ≤ were set here for values at or beyond the usual limits of such assays
HLA-A*01:01 = assay: as above
HLA-B*15:09 = assay: as above
HLA-B*58:01 = assay: as above
HLA-B*57:01 = assay: as above
HLA-B*07:02 = assay: as above
HLA-A*26:02 [4] = assay: as above; conditions: source organism: Variola virus
HLA-C*07:02 = assay: as above
HLA-A*68:02 = assay: as above
HLA-A*24:03 = assay: as above; conditions: source organism: Camelpox virus M-96
HLA-B*08:03 = assay: as above
HLA-A*69:01 = assay: as above
HLA-A*31:01 = assay: as above
HLA-A*26:03 = assay: as above; conditions: source organism: Variola virus
HLA-B*15:01 = assay: as above
HLA-B*27:05 = assay: as above
HLA-B*73:01 = assay: as above
HLA-B*48:01 [5] = assay: as above
HLA-B*18:01 [6] = assay: as above
HLA-A*02:01 [7] = assay: as above
HLA-A*29:02 = assay: as above
HLA-B*08:02 = assay: as above
HLA-B*08:01 = assay: as above
HLA-B*40:01 = assay: as above
HLA-B*46:01 = assay: as above
HLA-A*03:01 = assay: as above
HLA-B*44:02 = assay: as above
HLA-C*06:02 = assay: as above; conditions: source organism: Salmonella enterica subsp. enterica serovar Typhi str. CT18
HLA-A*26:01 = assay: as above
HLA-A*30:01 = assay: as above; conditions: source organism: Salmonella enterica subsp. enterica serovar Typhi
HLA-A*03:19 = assay: IEDB peptide-MHC binding, purified MHC/competitive/fluorescence; filed as Kd, often an IC50 or EC50 that approximates it; ≥ and ≤ were set here for values at or beyond the usual limits of such assays; conditions: source organism: Mycobacterium tuberculosis variant bovis BCG str. Pasteur 1173P2
HLA-B*83:01 = assay: as above; conditions: source organism: Mycobacterium tuberculosis variant bovis BCG str. Pasteur 1173P2
HLA-B*15:42 = assay: as above; conditions: source organism: Mycobacterium tuberculosis variant bovis BCG str. Pasteur 1173P2
HLA-B*45:06 = assay: as above; conditions: source organism: Mycobacterium tuberculosis variant bovis BCG str. Pasteur 1173P2
HLA-A*26:02 [8] = assay: as above; conditions: source organism: Orthomarburgvirus marburgense
HLA-B*48:01 [9] = assay: as above; conditions: source organism: Orthomarburgvirus marburgense
HLA-B*15:17 [10] = assay: IEDB peptide-MHC binding, purified MHC/direct/fluorescence; filed as Kd, often an IC50 or EC50 that approximates it; ≥ and ≤ were set here for values at or beyond the usual limits of such assays; conditions: source organism: Marburg virus - Musoke, Kenya, 1980
HLA-B*39:01 = assay: as above; conditions: source organism: Marburg virus - Musoke, Kenya, 1980
[11] = source organism: Camelpox virus M-96
[12] = source organism: Mycobacterium tuberculosis
[13] = source organism: Vibrio cholerae
[14] = source organism: Salmonella enterica
[15] = source organism: Salmonella enterica subsp. enterica serovar Typhi
[16] = source organism: Mammarenavirus lassaense
[17] = source organism: Marburg virus - Musoke, Kenya, 1980
[18] = source organism: Ravn virus - Ravn, Kenya, 1987

FYLFTFTIY
Kd (HLA-B*18:01 [1]): 3.89 µM
Kd (HLA-A*02:01 [2]): ≥ 20 µM
Kd (HLA-B*15:17 [3]): ≥ 20 µM
Kd (HLA-A*11:01; [11]): ≥ 20 µM
Kd (HLA-A*01:01; [11]): ≥ 20 µM
Kd (HLA-B*15:09; source organism: Variola virus): ≥ 20 µM
Kd (HLA-B*58:01; [11]): ≥ 20 µM
Kd (HLA-B*57:01; [11]): ≥ 20 µM
Kd (HLA-B*07:02; [11]): ≥ 20 µM
Kd (HLA-A*26:02 [4]): ≥ 20 µM
Kd (HLA-C*07:02; source organism: Vaccinia virus WR): 2 µM
Kd (HLA-A*68:02; [11]): ≥ 20 µM
Kd (HLA-A*24:03): 1.25 µM
Kd (HLA-B*08:03; source organism: Variola virus): ≥ 20 µM
Kd (HLA-A*69:01; [11]): ≥ 20 µM
Kd (HLA-A*31:01; [11]): ≥ 20 µM
Kd (HLA-A*26:03): ≥ 20 µM
Kd (HLA-B*15:01; [11]): ≥ 20 µM

QRIAVPVTK
Kd (HLA-B*27:05; [12]): 0.095 µM
Kd (HLA-B*73:01; source organism: Mycobacterium tuberculosis str. Haarlem): ≥ 20 µM
Kd (HLA-B*48:01 [5]; [12]): ≥ 20 µM

VLKLRFWLI
Kd (HLA-A*11:01; [13]): ≥ 20 µM
Kd (HLA-B*18:01 [6]; [13]): ≥ 20 µM
Kd (HLA-A*02:01 [7]; [13]): ≥ 20 µM
Kd (HLA-A*01:01; [13]): ≥ 20 µM
Kd (HLA-A*29:02; [13]): ≥ 20 µM
Kd (HLA-B*08:02; [13]): ≥ 20 µM
Kd (HLA-B*58:01; [13]): ≥ 20 µM
Kd (HLA-B*08:01; [13]): 0.034 µM
Kd (HLA-B*57:01; [13]): ≥ 20 µM
Kd (HLA-B*27:05; [13]): ≥ 20 µM
Kd (HLA-B*07:02; [13]): ≥ 20 µM
Kd (HLA-B*40:01; [13]): ≥ 20 µM
Kd (HLA-B*46:01; [13]): ≥ 20 µM
Kd (HLA-A*03:01; [13]): ≥ 20 µM
Kd (HLA-B*44:02; [13]): ≥ 20 µM
Kd (HLA-B*48:01 [5]; [13]): ≥ 20 µM
Kd (HLA-B*08:03; [13]): 0.188 µM
Kd (HLA-A*69:01; [13]): ≥ 20 µM
Kd (HLA-A*31:01; [13]): ≥ 20 µM
Kd (HLA-B*15:01; [13]): ≥ 20 µM

RRRQWASCM
Kd (HLA-A*11:01; [14]): ≥ 20 µM
Kd (HLA-A*02:01 [7]; [14]): ≥ 20 µM
Kd (HLA-A*01:01; [14]): ≥ 20 µM
Kd (HLA-C*06:02): 0.024 µM
Kd (HLA-B*58:01; [14]): ≥ 20 µM
Kd (HLA-B*08:01; [15]): 13.9 µM
Kd (HLA-B*27:05; [15]): 0.0774 µM
Kd (HLA-B*40:01; [14]): ≥ 20 µM
Kd (HLA-A*26:01; [14]): ≥ 20 µM
Kd (HLA-C*07:02; source organism: Salmonella enterica subsp. enterica serovar Typhi str. CT18): 0.045 µM
Kd (HLA-B*73:01; source organism: Salmonella enterica subsp. enterica serovar Typhimurium): ≥ 20 µM
Kd (HLA-A*30:01): ≥ 20 µM
Kd (HLA-A*03:01; [14]): ≥ 20 µM
Kd (HLA-B*44:02; [14]): ≥ 20 µM
Kd (HLA-A*69:01; [14]): ≥ 20 µM
Kd (HLA-A*31:01; [14]): ≥ 20 µM
Kd (HLA-B*15:01; [14]): ≥ 20 µM

RWRWFRAAM
Kd (HLA-A*03:19): 0.814 µM
Kd (HLA-B*83:01): ≥ 5 µM
Kd (HLA-B*15:42): ≥ 5 µM
Kd (HLA-B*45:06): ≥ 5 µM

QLDQRRALL
Kd (HLA-B*18:01 [6]; [16]): ≥ 20 µM
Kd (HLA-A*29:02; [16]): ≥ 20 µM
Kd (HLA-B*08:02; [16]): 15.1 µM
Kd (HLA-B*58:01; [16]): ≥ 20 µM
Kd (HLA-B*08:01; [16]): 0.773 µM
Kd (HLA-B*57:01; [16]): ≥ 20 µM
Kd (HLA-B*27:05; [16]): ≥ 20 µM
Kd (HLA-B*46:01; [16]): ≥ 20 µM
Kd (HLA-B*44:02; [16]): ≥ 20 µM
Kd (HLA-B*48:01 [5]; [16]): ≥ 20 µM
Kd (HLA-B*15:01; [16]): ≥ 20 µM

THYSGNIVH
Kd (HLA-A*26:02 [8]): ≥ 20 µM
Kd (HLA-B*48:01 [9]): ≥ 20 µM
Kd (HLA-B*18:01 [6]; [17]): ≥ 20 µM
Kd (HLA-A*02:01 [7]; [17]): ≥ 20 µM
Kd (HLA-A*01:01; [17]): ≥ 20 µM
Kd (HLA-B*15:17 [10]): ≥ 20 µM
Kd (HLA-B*15:09; [18]): 0.046 µM
Kd (HLA-B*08:02; [18]): ≥ 20 µM
Kd (HLA-B*58:01; [17]): ≥ 20 µM
Kd (HLA-B*08:01; [18]): ≥ 20 µM
Kd (HLA-B*57:01; [17]): ≥ 20 µM
Kd (HLA-B*27:05; [17]): ≥ 20 µM
Kd (HLA-B*39:01): 0.0274 µM
Kd (HLA-B*07:02; [17]): ≥ 20 µM
Kd (HLA-B*40:01; [17]): ≥ 20 µM
Kd (HLA-A*26:01; [18]): ≥ 20 µM
Kd (HLA-B*46:01; [17]): ≥ 20 µM
Kd (HLA-A*68:02; [17]): ≥ 20 µM
Kd (HLA-A*69:01; [17]): ≥ 20 µM
Kd (HLA-B*15:01; [17]): ≥ 20 µM
